Measurements: patent publication US20090263894A1 (AbbVie / Abbott, published 2009)
Read-outs that look alike come from different tables or passages of the source.

T1: human NGAL (C87S) produced in E. coli, NGAL(+)mut8 (human, UniProt P80188 21-198, 15N/2H or 13C/15N isotope label (NMR, Example 8); BHQ-10S quencher label (KD titrations, Example 9))
T1 construct: also called BHQ-NGAL; isotope-labeled human NGAL
T1 chain: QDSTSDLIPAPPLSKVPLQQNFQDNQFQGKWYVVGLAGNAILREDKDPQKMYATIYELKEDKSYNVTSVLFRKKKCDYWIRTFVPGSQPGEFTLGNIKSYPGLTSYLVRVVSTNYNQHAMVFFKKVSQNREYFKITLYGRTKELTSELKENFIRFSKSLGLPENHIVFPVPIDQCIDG

T2: NGAL rAg S112A displayed on yeast (human, UniProt P80188 21-198)
T2 construct: Yeast display AGA2 fusion as m5
T2 chain: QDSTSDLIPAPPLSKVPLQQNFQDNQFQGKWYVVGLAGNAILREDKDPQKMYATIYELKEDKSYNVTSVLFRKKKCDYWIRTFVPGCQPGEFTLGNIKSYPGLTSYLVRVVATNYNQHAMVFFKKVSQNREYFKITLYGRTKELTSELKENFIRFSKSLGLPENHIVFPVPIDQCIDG

T3: NGAL rAg H118A displayed on yeast (human, UniProt P80188 21-198)
T3 construct: Yeast display AGA2 fusion as m5
T3 chain: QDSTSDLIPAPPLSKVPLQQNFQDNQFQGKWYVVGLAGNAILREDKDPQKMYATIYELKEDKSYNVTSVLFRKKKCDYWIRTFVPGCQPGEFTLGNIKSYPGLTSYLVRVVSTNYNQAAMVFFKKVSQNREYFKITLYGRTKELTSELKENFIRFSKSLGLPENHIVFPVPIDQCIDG

T4: NGAL rAg A119G displayed on yeast (human, UniProt P80188 21-198)
T4 construct: Yeast display AGA2 fusion as m5
T4 chain: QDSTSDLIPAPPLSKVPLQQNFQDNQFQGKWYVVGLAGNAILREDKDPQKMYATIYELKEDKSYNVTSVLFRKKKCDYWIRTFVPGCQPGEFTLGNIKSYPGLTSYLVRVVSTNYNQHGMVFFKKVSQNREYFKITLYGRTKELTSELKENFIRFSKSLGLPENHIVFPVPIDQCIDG

T5: NGAL rAg Q117A displayed on yeast (human, UniProt P80188 21-198)
T5 construct: Yeast display AGA2 fusion as m5
T5 chain: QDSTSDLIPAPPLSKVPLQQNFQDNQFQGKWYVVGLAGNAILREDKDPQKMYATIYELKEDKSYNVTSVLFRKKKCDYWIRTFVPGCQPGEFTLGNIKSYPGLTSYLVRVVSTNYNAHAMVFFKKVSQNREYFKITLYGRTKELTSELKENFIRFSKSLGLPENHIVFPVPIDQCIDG

T6: NGAL rAg S158A displayed on yeast (human, UniProt P80188 21-198)
T6 construct: Yeast display AGA2 fusion as m5
T6 chain: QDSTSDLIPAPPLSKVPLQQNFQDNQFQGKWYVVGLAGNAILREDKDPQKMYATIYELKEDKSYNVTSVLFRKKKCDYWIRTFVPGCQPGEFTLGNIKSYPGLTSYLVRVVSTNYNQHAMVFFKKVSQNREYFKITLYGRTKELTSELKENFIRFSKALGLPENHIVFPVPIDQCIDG

T7: NGAL rAg S14A displayed on yeast (human, UniProt P80188 21-198)
T7 construct: Yeast display AGA2 fusion as m5
T7 chain: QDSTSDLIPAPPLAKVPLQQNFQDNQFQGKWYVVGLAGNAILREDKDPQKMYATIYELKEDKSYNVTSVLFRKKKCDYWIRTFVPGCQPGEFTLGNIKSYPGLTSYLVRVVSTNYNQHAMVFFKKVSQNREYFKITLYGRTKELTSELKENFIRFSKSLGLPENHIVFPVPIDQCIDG


How the values were obtained:
[1] = target: T1, human NGAL (C87S) produced in E. coli, …; assay: DC-FCCS sandwich formation in solution; second antibody mAb 809
Procedure: (§1) Samples were placed in a 96-microwell optical bottom plate (Nalge Nunc International, Rochester, N.Y.). The excitation wavelength was set at 810 nm, 3 mW on the sample. Sampling rate was set at 200 KHz and 10 million points were collected for each measurement. Each sample was measured twice. Experiments were performed on each sample after one-hour incubation.
(§2) Labeled antibodies were mixed at equal concentration (40 μL of 10 nM mAbs) and ligand (15 nM NGAL) was added to the solution. Cross-correlation curves before and after adding NGAL were calculated from the data sets acquired in each channel and the data were normalized.
(§3) For illustration purposes, a relative number was assigned to each antibody pair, which, in fact, is the ratio of Gx(0) values before and after the addition of NGAL to the antibodies (Table 13). All ratio values were corrected for the background. A value of “1” indicates no sandwich formation, values between 1.1 and 2.5 indicate a poor sandwich formation, and all values above 2.6 indicate productive antibody pairing.

[2] = target: T1, human NGAL (C87S) produced in E. coli, …; assay: DC-FCCS sandwich formation in solution; second antibody mAb 903
Procedure: as §1, §2, §3

[3] = target: T2, NGAL rAg S112A displayed on yeast; assay: flow cytometry titration of the mAb on yeast displaying the NGAL antigen, detection with GaM-PE, fractional binding
[4] = target: T3, NGAL rAg H118A displayed on yeast; assay: as above
[5] = target: T4, NGAL rAg A119G displayed on yeast; assay: as above
[6] = target: T5, NGAL rAg Q117A displayed on yeast; assay: as above
[7] = target: T8, wild-type NGAL antigen displayed on yeast (AGA2 fusion) (human, UniProt P80188 21-198); assay: as above
T8 construct: also called WT

[8] = target: T6, NGAL rAg S158A displayed on yeast; assay: as above
[9] = target: T7, NGAL rAg S14A displayed on yeast; assay: as above
[10] = target: T8, wild-type NGAL antigen displayed on …; assay: as above; remark: listed apart in the source

Binder | ratio of Gx(0) before and after adding NGAL [1] | ratio of Gx(0) before and after adding NGAL [2] | EC50 (read off the curve) [3] | EC50 (read off the curve) [4] | EC50 (read off the curve) [5] | EC50 (read off the curve) [6] | EC50 (read off the curve) [7] | EC50 (read off the curve) [8] | EC50 (read off the curve) [9] | EC50 (read off the curve) [10]
anti-NGAL monoclonal antibody 1-2322-455 (antibody, V domains shown) VH: EVQLVESGGGLVQPGGSLKLSCAASGFTFNNYYMSWVRQTPERRLEWVAYISSSGGSTYYSDSVRGRFTISRDTARNTLYLQMTSLKSEDTAMYYCARHFGDYSYFDYWGQGTTLTVSS VL: DIQMTQSPASLSASVGETVTITCRASENFYSYLAWYQQKQGKSPQLLVYNAKTLAEGVPSRFSGSGSGTQFSLKINSLQPEDFGTYYCQHHYDIPLTFGAGTKLELKR | 1.5 | 3.5 | ~0.1 nM | ~0.2 nM | ~0.007 nM | ~0.03 nM | ~0.006 nM |  |  | 
anti-NGAL monoclonal antibody 1-903-430 (antibody, V domains shown) VH: KIQLVQSGPELKKPGETVKISCKASGYTFTNYGMNWVKQAPGKGLKWMGWININTGEPTYAEEFKGRFAFSLETSATTAFLQINNLKNEDTATYLCARDSYSGGFDYWGQGTIVTVSS VL: DIVMTQSPSSLSVSAGEKVTLSCKSSQSLLISGDQKNYLAWYQQKPGQPPKLLIYGASTRDSGVPDRFTGSGSGADFTLTISSVQAEDLAVYYCQNDHSFPPTFGAGTKLELKR | 3 | 1 |  |  |  |  |  | ~0.2 nM | ~0.3 nM | ~0.2 nM
